{"source": "patent US20210095004", "key": {"Aca cand27": {"molecular_target": "T1, Aca cand27", "T1 chain": "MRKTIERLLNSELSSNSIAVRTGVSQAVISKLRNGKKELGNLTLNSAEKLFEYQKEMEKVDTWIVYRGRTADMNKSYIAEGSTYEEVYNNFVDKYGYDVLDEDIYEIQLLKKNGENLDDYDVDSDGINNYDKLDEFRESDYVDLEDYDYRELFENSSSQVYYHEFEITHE"}, "Aca cand9": {"molecular_target": "T2, Aca cand9", "T2 chain": "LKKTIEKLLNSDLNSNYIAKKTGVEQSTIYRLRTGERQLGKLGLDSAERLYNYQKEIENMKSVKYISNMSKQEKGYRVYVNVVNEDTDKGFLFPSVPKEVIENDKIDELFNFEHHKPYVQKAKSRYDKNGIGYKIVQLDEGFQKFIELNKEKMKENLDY"}, "truncated Aca cand27": {"molecular_target": "T3, truncated Aca cand27", "T3 chain": "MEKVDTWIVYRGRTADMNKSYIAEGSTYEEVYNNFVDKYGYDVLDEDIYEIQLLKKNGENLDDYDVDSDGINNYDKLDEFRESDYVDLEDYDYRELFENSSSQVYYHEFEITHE"}, "truncated Aca cand9": {"molecular_target": "T4, truncated Aca cand9", "T4 chain": "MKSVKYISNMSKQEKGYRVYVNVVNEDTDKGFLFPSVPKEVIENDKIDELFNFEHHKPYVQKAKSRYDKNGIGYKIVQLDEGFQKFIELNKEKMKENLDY"}}}
{"protein": "Staphylococcus aureus Cas9 (protein) MKRNYILGLDIGITSVGYGIIDYETRDVIDAGVRLFKEANVENNEGRRSKRGARRLKRRRRHRIQRVKKLLFDYNLLTDHSELSGINPYEARVKGLSQKLSEEEFSAALLHLAKRRGVHNVNEVEEDTGNELSTKEQISRNSKALEEKYVAELQLERLKKDGEVRGSINRFKTSDYVKEAKQLLKVQKAYHQLDQSFIDTYIDLLETRRTYYEGPGEGSPFGWKDIKEWYEMLMGHCTYFPEELRSVKYAYNADLYNALNDLNNLVITRDENEKLEYYEKFQIIENVFKQKKKPTLKQIAKEILVNEEDIKGYRVTSTGKPEFTNLKVYHDIKDITARKEIIENAELLDQIAKILTIYQSSEDIQEELTNLNSELTQEEIEQISNLKGYTGTHNLSLKAINLILDELWHTNDNQIAIFNRLKLVPKKVDLSQQKEIPTTLVDDFILSPVVKRSFIQSIKVINAIIKKYGLPNDIIIELAREKNSKDAQKMINEMQKRNRQTNERIEEIIRTTGKENAKYLIEKIKLHDMQEGKCLYSLEAIPLEDLLNNPFNYEVDHIIPRSVSFDNSFNNKVLVKQEENSKKGNRTPFQYLSSSDSKISYETFKKHILNLAKGKGRISKTKKEYLLEERDINRFSVQKDFINRNLVDTRYATRGLMNLLRSYFRVNNLDVKVKSINGGFTSFLRRKWKFKKERNKGYKHHAEDALIIANADFIFKEWKKLDKAKKVMENQMFEEKQAESMPEIETEQEYKEIFITPHQIKHIKDFKDYKYSHRVDKKPNRELINDTLYSTRKDDKGNTLIVNNLNGLYDKDNDKLKKLINKSPEKLLMYHHDPQTYQKLKLIMEQYGDEKNPLYKYYEETGNYLTKYSKKDNGPVIKKIKYYGNKLNAHLDITDDYPNSRNKVVKLSLKPYRFDVYLDNGVYKFVTVKNLDVIKKENYYEVNSKCYEEAKKLKKISNQAEFIASFYNNDLIKINGELYRVIGVNNDLLNRIEVNMIDITYREYLENMNDKRPPRIIKTIASKTQSIKKYSTDILGNLYEVKSKKHPQIIKKG", "values": [{"measurement": "SauCas9-mediated cleavage of target DNA in vitro (FIG. 1)", "setting": "Aca cand27", "value": "inhibited SauCas9-mediated cleavage of target DNA at Acr:SauCas9 molar ratios of 10:1 and 20:1"}, {"measurement": "SauCas9-mediated cleavage of target DNA in vitro (FIG. 1)", "setting": "Aca cand9", "value": "inhibited SauCas9-mediated cleavage of target DNA at Acr:SauCas9 molar ratios of 10:1 and 20:1"}, {"measurement": "SauCas9/guide RNA-mediated cleavage of target DNA in vitro (FIG. 2C)", "setting": "truncated Aca cand27", "value": "inhibited SauCas9/guide RNA-mediated cleavage of target DNA at truncated Acr:SauCas9 molar ratios of 5:1, 10:1, and 20:1"}, {"measurement": "SauCas9/guide RNA-mediated cleavage of target DNA in vitro (FIG. 2B)", "setting": "truncated Aca cand9", "value": "inhibited SauCas9/guide RNA-mediated cleavage of target DNA at truncated Acr:SauCas9 molar ratios of 5:1, 10:1, and 20:1"}]}
